Source: the DeepSol protein solubility set

Experiment: soluble on expression in E. coli; label from the status in PepcDB or PDB records

Row | Sequence | soluble on expression in E. coli
1 | AQQAEWRSWEVNKRLEYSLVKGITEFIEQDTEEARQQATRPCEVIEGPLMDGMNVVGDLFGEGKMFLPQVVKSARVMKQAVAYLEPFIEASKEQCKTNGKMVIATVKGDVHDIGKNIVGVVLQCNNYEIVDLGVMVPAEKILRTAKEVNADLIGLSGLITPSLDEMVNVAKEMERQGFTIPLLIGGATTSKAHTAVKIEQNYSGPTVYVQNASRTVGVVAALLSDTQRDDFVARTRKEYETVRIQHGRKKPRTPPVTLEAARDNDFAFDWQAYTPPVAHRLGVQEVEASIETLRNYIDWTPFFMTWSLAGKYPRILEDEVVGVEAQRLFKDANDMLDKLSAEKTLNPRGVVGLFPANRVGDDIEIYRDETRTHVINVSHHLRQQTEKTGFANYCLADFVAPKLSGKADYIGAFAVTGGLEEDALADAFEAQHDDYNKIMVKALADRLAEAFAEYLHERVRKVYWGYAPNENLSNEELIRENYQGIRPAPGYPACPEHTEKATIWELLEVEKHTGMKLTESFAMWPGASVSGWYFSHPDSKYYAVAQIQRDQVEDYARRKGMSVTEVERWLAPNLGYDAD | soluble
2 | SKEHREIAKKIAQKSMVLLKNENILPFTPQEKIALVGPGAQSQDILGAWSWQGKKEEAISLVAGAQKLTTNLLVAQEPFDYFEPTAAAIEEALTLASQADKVVVALGETDWMSGEAASRSDIRLPEKQLAVVAQIIEKNPNVVVTVYSGRPLDLQGIDVAKGIVQAWQPGTEGGNALAEILWGQYNPSGRLSMSFPETVGQVPIFYNVDNTGRPYESAPEEKYVSKYLDVSNYAKYPFGFGLSYSHF | not soluble
3 | MVRFFIGKEMLFDSHLHLDQLSDENIQQTLAHSKIIGMLAVSTNLNSAKKLLNLKQTYPKKLYIAAGFHPEQQLPSLEEQKKLFQWIDEHHSSISAIGEVGLPHYSKRENPNLDYVPYIELLERFILIAKKWDLPLNLHIVHNDVEIALELLQKHNIQRAHFHWFKTDEKSFQKFFSTPYFASLTPDILWNSKTQYVAQHLSLNRLMIETDSPWQHEGFERAGISEQLLAVLQKLAELKSLPLHSVQKQILLNTQQFYRLLEHHHHHH | not soluble
4 | MVCLQRICYEKIFLKKKIIATGTIWMSNMQQINNASVRPVSAYNTKHLQIPAIALLQSSPLPEQAIRTFSRALLTPTNHLFVNGRYIRTGLISGFDSRKLSFFQRIYLFLKSRFFTENKSVKISAVWAHDSWSNNYFHWFNDTLPRLFLLSKQIEDSVAVLPVELSKITFIVESLELLKIEHQWIDQKKSHRFESLSVLHTATLQPDINPLLQKQMRDAVFSAMKIDPQERPFRKIYISRAHARYRKIINEQELLPVLKKYGYDIIYPETYSFKEQVKLFAESNALISIHGAGHTNCMFMKQDAKVMEIRNTEWESQPLCFWGLANIFELKWEYITATRVSEVSNFNDVFIAPHIFEESLRTFENIKLEHHHHHH | not soluble
5 | MFETCEAIVMRTVDYGETNKIVTLFTREWGKVAAMARGAKKPSSRLSAVTQPLSYGHYVIRRSRGVGVLHQGELIDSMRALREDLFAAAYAVYIVELTDKSTEEQKRNPYLFELLLQTLQYMSEGRDLEILTFIYEMKMLAVLGIPPVLDRCARCGATEGRFSFSVKEAGFLCHRCEASDPHRFPLSSASVRLLRLFFHIDLARLGSISVKESTKMELGSVLSAYYDEYAGLSLKTKRFLQQIGELKDKLSPDGGQGASFSL | not soluble
6 | MGSDKIHHHHHHMAFAMKVISQVEAQRKILEEAVSTALELASGKSDGAEVAVSKTTGISVSTRYGEVENVEFNSDGALGITVYHQNRKGSASSTDLSPQAIARTVQAALDIARYTSPDPCAGVADKELLAFDAPDLDLFHPAEVTPDEAIELAARAEQASLKADKRITNTEGGSFNSHYGIKVFGNSHGMLQGYCSTRHSLSSCVIAEENGDMERDYAYTIGRAMADLQAPEWVGAECARRTLSRLSPRKLSTMKAPVIFANEVATGLFGHLVGAIAGGAVYRKSTFLLDSLGKQILPEWLTIEEHPHLLKGLASSPFDSEGVRTERRDIVKDGVLTQWLLTNYSARKLGLKSTGHAGGIHNWRIAGQGLNFEQLLKEMGTGLVVTELMGQGVSGITGDYSRGAAGFWVENGEIQYPVSEITIAGNLKEMWRNIVTVGDDIETRSNIQCGSVLLPEMKIAGQ | not soluble
7 | MTKRKNASNAGSSPKKEKKSETFAALKSVKAEKRPAADSSDSEPEDFEEEQITHTEAEETRNEDNGQAIYEPDVMRPLIESFLEFLVQRQSETSTVHNMENKVAEWAETRRDDNIDAGLFVLDFRKYLKSAVKFKNLQMNDSCAAISTYLNSEKSLVEYKSMPDRPPTKIQLYIKKHQIMLKGIGGEPMKNAYKAMNADTEGAKELDELLREASLQYIPQLQEFLDTHPNLTEEQKRSIVNKMKMLNKKYNSKEISSTPKKRSSKKDPETAFSLFCRTKNDKYRDLSDEEREIKLQKKFEKLPAAQKDIYESLAISM | soluble
8 | MGHHHHHHSHMQSYLPNDTVESGIHPVYFCSTHYIEMLLKAELPLVFSAFHMSGFAPSQICLQWITQCFWNYLDWIEICHYIATCVFLGPDYQVYICIAVFKHLQQDILQHTQTQDLQVFLKEEALHGFRVSDYFEYMEILEQNYRTVLLRDMRNIRLQST | not soluble
9 | MPTYPPSLLQSLLQYIPERELAWDCGAGSGQLTHMLASYFDQVVGTDISQTQLSHAEYYDNISYQLQPAENTTFPDHCFDLITVAQAIHWFDFEAFYAEVRRTIKPSGILAVVGYGLIHVDDLEINAKVQHLYHQTLNGFWDAERHYVDELYQTIPFPFDEIEMPAFQIEAQWTLQQLLQYLNTWSAVQHYILEKNLDPVQQLLSKGLEHHHHHH | not soluble
10 | MVPQTETKAGAGFKAGVKDYRLTYYTPDYVVRDTDILAAFRMTPQPGVPPEECGAAVAAESSTGTWTTVWTDGLTSLDRYKGRCYDIEPVPGEDNQYIAYVAYPIDLFEEGSVTNMFTSIVGNVFGFKALRALRLEDLRIPPAYVKTFVGPPHGIQVERDKLNKYGRGLLGCTIKPKLGLSAKNYGRAVYECLRGGLDFTKDDENVNSQPFMRWRDRFLFVAEAIYKAQAETGEVKGHYLNATAGTCEEMMKRAVCAKELGVPIIMHDYLTGGFTANTSLAIYCRDNGLLLHIHRAMHAVIDRQRNHGIHFRVLAKALRMSGGDHLHSGTVVGKLEGEREVILGFVDLMRDDYVEKDRSRGIYFTQDWCSMPGVMPVASGGIHVWHMPALVEIFGDDACLQFGGGTLGHPWGNAPGAAANRVALEACTQARNEGRDLAREGGDVIRSACKWSPELAAACEVWKEIKFEFDTIDKL | soluble
11 | MAHHHHHHMPGVLRGKGPTRVFLPQPCNHVGNLKIVWKVKLQIYAVQTNFSRVYGAPSDAQPHVICGTKRISDVHQDIACCRILLNGVIAPPVRLQNQPLVFLTKETGDGVGITHCVECRHVSQHILRLKKNIAVNDDSPLLGAAVTNEIHTKPASSHSSADTQMIGH | not soluble
12 | MESEKKIAHEIGGVKNDALRFGLHGVKSNIIGSHPLESSYESEKKSKEALKRTVIAHAYGTALPLKMDMDRQILSRFQRPPGPIPSSMLGLEVYTGAVDDFGFEDYLNDPRDSETFKPVDFHHGMEVRLGISKGPIYPSFM | not soluble
13 | MGGVSDERLDLVNERDEVVGQILRTDPALRWERVRVVNAFLRNSQGQLWIPRRSPSKSLFPNALDVSVGGAVQSGETYEEAFRREAREELNVEIDALSWRPLASFSPFQTTLSSFMCVYELRSDATPIFNPNDISGGEWLTPEHLLARIAAGEAAKGDLAELVRRCYREEE | soluble
14 | MAHHHHHHMEQLNDDDERENLYFVDHGRPKYKHTDLLAMLRDAQSAIIRFSEENRDIIADAVNFASTSERANTLRKLEEAYLGIVKVQAPMVRCSRPAFRKLCRLWGTDVSYTHMIMADSFTCSDAARHADFSMYAGEERLVAQIASCSGPVAAEAATLLAPYCDAIDLNCGCPQRWIIKEGLGSALLQKPEVVADMVRCIHNGLSGGVDLPCVVKMRVSNDVGRSVDFARQCEAAGCGWITVHGRTPSCSAHAPVRLDAIRTIRECVSVPVVANGGVNNPQTALKTSLTTGAGAVMSATGLLANPACFYVPREGELLLFAPQRRGVDVALEASMGPCRGADEGASTAGSENSAWLKGLPGCPVEVISDFIRLSCVTDLASKATSMHLLKMGGNYLSPTERVFLAQMHSSFSVVSALQQLGLYTQDGKFRVVESVT | soluble
15 | MNDYSTTRDRVEHYFDRTATHTWERLTSSAPVSRIRQTVREGRDTMRAKMLWRLPKDLTGLRVLDAGCGAGQMTAELAARGAQVMAVDISPQLVEIARKRLPPEHQDRVTFASGDMLADDLGRFDYVVAMDSLIYYTDADIAAALDRLGARTRHSVVFTVAPRTPFLMAFWTMGKLFPRSDRSPVMIPHPFQPLNEATGGRLVKVGRVSRGFYISECLEFRPLEHHHHHH | not soluble
16 | MLPSAQVARLKPDPFPPSLSPIPHGAVTFAALAPCHNLPIFSSRQMLRDSLTYSHTSPTMSPQIANRFEASLDAQDIARISLFTLESGVILRDVPVAYKSWGRMNVSRDNCVIVCHTLTSSAHVTSWWPTLFGQGRAFDTSRYFIICLNYLGSPFGSAGPCSPDPDAEGQRPYGAKFPRTTIRDDVRIHRQVLDRLGVRQIAAVVGASMGGMHTLEWAFFGPEYVRKIVPIATSCRQSGWCAAWFETQRQCIYDDPKYLDGEYDVDDQPVRGLETARKIANLTYKSKPAMDERFHMAPGVQAGRNISSQDAKKEINGTDSGNSHRAGQPIEAVSSYLRYQAQKFAASFDANCYIAMTLKFDTHDISRGRAGSIPEALAMITQPALIICARSDGLYSFDEHVEMGRSIPNSRLCVVDTNEGHDFFVMEADKVNDAVRGFLDQSLM | soluble
17 | MMDYPSIDTLLESAHIVTLPMKYPFMGLSERQAVLFEGPNSWAEYSPFMGCNDTRMWLASAIEYGWGNTNVLSVPNLDLDNTNFASRSKYGYIANPQTSNKDHSDNKRFYTQTKNHREIPVNAILPDIPASKMSEILGKDLQGCKCVKIKVGKHFQDRDIHRIRAVLDFMGADTMLRLDANCKWNVSETLNNLDVLEDNDLLENVSYIEQPCRTTRELITLKQKMDTRGYVTKIAIDESLRDLLLHWQKNRKWSNNSGITYTTELRETLSACDMLVLKLQPMGGMRAVADLLESIKNNIKVNVGYTVSSSLETSLGIEMGLALALNLPNITLPVGLATAGLLDADITDDPLLPNKGYITPRKIEVNKKLLNRYAADKRHVVWWHRRIRAAHRALFQDLSD | soluble
18 | MTIVIGFEGSANKIGIGIIKDGEVLSNPRRTYITPPGQGFLPGETAKHHRSVILTVLQEALDEAGLKAADIDCVAYTKGPGMGAPLVTVAIVARTVAQLWGKPLLGVNHCIGHIEMGRLITNAQNPTVLYVSGGNTQVIAYSERRYRIFGETIDIAVGNCLDRFARVIKISNDPSPGYNIEQMAKKGNKYIELPYTVKGMDVSFSGILSYIEDAAHKMLSTDQCTPEDLCFSLQETVFAMLVEITERAMAHCGSQEVLIVGGVGCNLRLQEMMGVMCKERGARLFATDESFCIDNGAMIAQAGWEMFRSGHVTELPDSWITQRYRTDEVEVTWRD | soluble
19 | MNLSIFGLKNIPYLKEGDSIEKLIEESIKTSEFFIEDNDVLCIASKVVSIAEGQVMSLNEIQVSDVAKEIHRNIPRKDPRIIEIMLNLVNRDLSRLDIKKNYIGCRLENGLKLTSGGIDRKSVDEVFLLPNNPDASAKRISEYLKKSLGKNVAVVITDSDGREDKRGATQVAIGIYGIHPLRKTEVIDSQGETIKFQEETLCDMIAACAGLVMGQRGTGIPAVLIRGLDYKWSENTSIKEALNE | not soluble
20 | MGSDKIHHHHHHMMDMLMSTPNYNASLLAMATAALNALDSSHAGAAHATEAQQSHFLCNWMAQALKDKSFDKAIAGELTLWVRQGRSMGSSAQLKRLLQTIRHQYSTLAEHTMGLGNALAKMLEDARQQDVIVYTDTPVKTKLKLDADGQSSIIVCADEYQQHIRDGELIKPISLFVRADEKFLAKLAFSHGLMLTQGDKKSSLIKHHKSYKLFPKNQLPSLALLTFH | not soluble
